In the DeepSol protein solubility set:

Assay: soluble on expression in E. coli; label from the status in PepcDB or PDB records

Sequence	soluble on expression in E. coli
MSNEPESTQHKSALQGLKGYLSSQILGQEKLVDRLLIALLADGHLLVEGAPGLAKTKAIKDLAEGLEAEFHRIQFTPDLLPADITGTEIYRPETGTFVFQQGPIFHHLVLADEINRAPAKVQSALLEAMAERQVSVGRSTYDLPQLFLVMATQNPIEQEGTYPLPEAQLDRFLMHVKIGYPEASVERRILQQARGEALNGEARPERRVTQETIFAARQEILGLYMADAVEEYLVQLIMATRTPAKHDAELAEWISYGASPRGSIALDRCARAHAWLGGRDFVSPEDIQAVLFDVLRHRLILTFEAEAAGIDQDRVVQRILDVVAVALEHHHHHH	soluble
MSNGAWTDQENDLIVADYFAMLADDVSGRPYNKAEHRRGLLPLLNDRSEGSVEFKHQNISAVLKGLGEDWIPGYKPAFNFQMTLVDAVARWLALNPAWLGRHSGTRAPTGLAEVRPIWIGPPPTLSNQPPPQELEQMLHIARKFDVAARDERNRALGRAGEERVLAHERATLKSAGRDDLARNVRWVSEEDGDGAGYDIASFALDGSPRLIEVKTTNGWERTPFHISRNELAVAEARRSEWSLFRLWNFAREPKAFELHPPLGAHVSLTATTFQASLHLEHHHHHH	not soluble
MSNHQKRLSVPNSWPVERKTATFTVKAGAGPHGESGVPLLIVLRDVLGYADNRKEARYALNEDNVLINGKAISDEERPVGMFDILAFTEREEYYRVFPGEGGRLALTAIDPDAAQSKLGKIVTKTHVSGGDVQLGLHDGETLIVEDDQTYDAGDSIVVGNEDGEVVAHFEYEEGALVTAVDGAHAGEVGEVEEIQVTPGSAQNNVIVSQDEGEGFETVEEYVVVIDENFTGDDELEHHHHHH	soluble
MSNSSMSVVILAAGKGTRMYSDLPKVLHPLAGKPMVQHVIDAAMKLGAQHVHLVYGHGGELLKKTLADPSLNWVLQAEQLGTGHAMQQAAPHFADDEDILMLYGDVPLISVDTLQRLLAAKPEGGIGLLTVKLDNPSGYGRIVRENGDVVGIVEHKDASDAQREINEINTGILVANGRDLKRWLSLLDNNNAQGEFYITDIIALAHADGKKIATVHPTRLSEVEGVNNRLQLSALERVFQTEQAEKLLLAGVMLLDPSRFDLRGELTHGRDITIDTNVIIEGHVILGDRVRIGTGCVLKNCVIGDDSEISPYTVLEDARLDANCTVGPFARLRPGAELAEGAHVGNFVEIKKARLGKGSKAGHLSYLGDAEIGAGVNIGAGTITCNYDGANKFKTIIGDDVFVGSDTQLVAPVTVANGATIGAGTTVTRDVAENELVISRVKQVHIQGWKRPVKKK	soluble
MSNTLFDDIFQVSEVDPGRYNKVCRIEAASTTQDQCKLTLDINVELFPVAAQDSLTVTIASSLNLEDTPANDSSATRSWRPPQAGDRSLADDYDYVMYGTAYKFEEVSKDLIAVYYSFGGLLMRLEGNYRNLNNLKQENAYLLIRR	soluble
MSNTPIELKGSSFTLSVVHLHEAEPEVIRQALEDKIAQAPAFLKHAPVVINVSGLESPVNWPELHKIVTSTGLRIIGVSGCKDASLKVEIDRMGLPLLTEGKEKAVRPAPVEPATPSEPPQNANPITKTRLIDVPVRSGQRIYAPQCDLIVTSHVSAGAELIADGNIHVYGMMRGRALAGASGDREAQIFCTHLTAELVSIAGVYWLSDKIPAEFYGKAARLRLADNALTVQPLN	not soluble
MSNTQHKLDKTRPPRVQITYDVETGDAETAKELPLVIGVLGEYSSSEKPLRERKFISIDKDNFDEVMASMSPTAHFMVDSVIPGNEGKLDVELRFSCKDDFSPDNVIQQVECLRKLSELRLHLCDLRNRAASNEKLKEKLQELLVTTNGNPENDESKE	not soluble
MSNTVATMINKRNIMRNYIKIGVAGPVGAGKTALIEKLTREIASKYSVAVITNDIYTQEDAEFLTKNSLLPPERIMGVETGGCPHTAIREDASMNLEAVDEMVTRFPDVEIVFIESGGDNLSATFSPDLADVTIFVIDVAQGEKIPRKGGPGITRSDLLVINKTDLAPFVGADLSVMERDARRMRNGQPFIFTNLMKKENLDGVIGWIEKYALLKNVEEPASLVRLEHHHHHH	soluble
MSPANRVVQPYSKEDLAIQVSQLSGSRAAIWKALDSIDSWSYRVFDVQAAMSGDDYLSLSTQTHGGSLLITMYALLCMHDFLQKFKIDEQIALNWISAVEASYHGNPYHNSMHAADVLQITDFIITQGGLAKRCDLSDIQVFSALLAASIHDFDHPGINNNFHIKTGSYLATLYNDRSVLENLHVSSVFELMKNPAFNILASFSDEQHHEVRETMIEMVLATDMGSHGKYVASLKGKMQEHSSFTQTAEQNLCLAIALKMADISNCGRPLDIYLRWGAKVSDEFYQQGDRERNLGLECSPFMDRLQPSLAKSQIAFMNYIITPFFEQVAELLPDMRFAVALVEENKAYWANHDDS	not soluble
MSPEEVKARGWKELDVILVTGDAYVDHSSFGTAIIGRVLEDAGFRVGIIAQPRWENPEDFKKLGKPRLFFSVSAGNTDSMVSNLTPGLKPRNKDAYSPGGKTGLRPNRAAIIYSNRIKEAFPDMPIVLGGIEASMRRFAHYDYLSDKVRQSILADAPADLVVYGMGELQIVEIAKRLQAGEDIKGIRDISGTVWKMEVKAWKELKGKGKEKAGEQDESENATEEVAKDKSLDPAEFFKEYVEIPSFSEVSQDKAVFAKAFRTYFLEQNPVTGKGIVQPHPKTIIIQNKPMRPLTEAELDHVYELPYTGETHPSYTEPVPALEMVKFSLTTHRGCF	not soluble
MSPENKICMEQSEDGDLDAGDELFEEVDGDGKGEIFANRELLNIDHVPDENRIVGRDEHITELANEIGPAVTGSPPNSVILYGKTGSGKSLVANHVMERARREAQRRDRRLATVTVDCAQSRGEADTVQTIADKINRSTSGVTVPTRGISTNEYYNRLWQILGTEYDAALITLDEVDRLSDDDILMILSRAREAGKVDVPIGIISISNKVNFREQMTERVKSSLGHNEMIFDPYDGEQLRQILENRKDAFQEDILMPGVIPKTAALAAQRHGDARKAIRLLRHAGDYAKTNNIGTVKESHLELAQEQAEVERLKELISGLPPHSKYVLYALANLTDGTTNSNDWFRTTVIYDVYEEVCKTEATDTLTTDTIRGLLNELAFLEITESNQEHGGMGKGTYKEHRLLWDPNVVFKMNPGSAQVDTDR	not soluble
MSPTLQDARLLWDFLGQGRCHVPCELLVVCGSYDLRVCDHACELLERGLAERLLFTGNTGHWTRHLWVEPEAELFARHARARGVSDSLIVIEPRATNFAENIAFARELFPDLRRATFVTKPNSIRRVALTLPVRWPGLEGHVDAPDYAFPDGISNLVGVLGVIDEMVGDLDRIMRYPALGFQVACPIPAQVMDAWERLVARGFDRHLVNPPRLEHHHHHH	soluble
MSPTLTHLALHVPDLDACIAFYETFCGMRVIHRRPGKGSQIVWMAEPGQEQRFIFVIMPGGQPRNLASDDYSHFGFALSSRAAVDDLARRAEAAGCLVWAPRDEPYPVGYYCGLRDPAGNYVEFSYGQPLGPGSEALPIP	not soluble
MSQANANFLDNSKVSANKTAESGQLKEFRTPPHNLAIEQAVLAALMTVAESFEQVNDLLKENDFYATRHKYIFRAIEKLAQENSPYDAVLVNDWLLKQNLLDAIGGEEYLMQLMADSPSSFYNLETYASKIKEFSTLRSMIKVSSDILQNAYDTKGRPVSEILDLAETSIFSLAEQHNNNKKDAGPKSISSVTADVISKLDELSKLDGNITGLTTGFLELDNKTYGMQSGDMIIVAARPSMGKTTFAMNLVESVLFNCNLPALVFSMEMPADSIAMRLISSYGKVHQGHLRSGKLDGDEWSKVTGTILQLQEKHLYIDDSSALPPTELRARARRIAKQHGGKLGCIMIDYLQLMKVPGMGDNRVGEIGEISRSLKALAKEMDCPVIALSQLNRSLENRPNKRPVMSDLRESGAIEQDADLIMFIYRDEVYNKESKEAGTAEIIIGKQRNGPIGTVRLAFEGQYTRFSNLSPEYYSQYDDEE	not soluble
MSQLNDSDIILFEYNFHYQNIRSKNTLDIAFGIDRNFLFGCGVAIASILLNNREISCEFHVFTDYISDKDKLYFSDLAKQYNSRINIYVINCDKLKSLPSTKNWTYATYFRFIIADYFYHKHEKILYLDADIACKGSIKELLDYQFSTNEIAAVVAERDVEWWQNRASVLTTPQLASGYFNAGFLLINIDEWNLNNISSKAIEMLRDPDWVSKITHLDQDVLNVLLNGKVKFISEKYNTRYSINYELKDKVDNPVNDDTVFIHYVGPTKPWHEWADYPVSRSFLIAKAASPWSKEDLLKPVNSNQYRYCAKHKFKQKHYMAGIFNYLKYYKEKCF	not soluble
MSQPSGPPIGFSNPDYIPPKALDLLKPALTIRAPPEETGMLGELQEDVLQVLSLPCRHTNACLPACLQSLPILCSF	soluble
MSQQELFFEVRRNRSHIYLDAEESHSVMELKLMLAGITRDPVNHMELWKLDEDGNKSQLLHDTATLSDAGFSSTNAKAQCPAALGLRLTNAEEHLTISDVSTAPPIPDTMRQEQAPQE	not soluble
MSQSYHRPRPAGMAGAILDKQASKFNDVEAGYLLEWIRDLTKEDFDCEASRDNFREQLKDGQRLCKLVNAIKAGSVKKIMKPISNFNCLENINQFSTAARSLGVKDEETFQSVDLFDGRDLFSVTVTLQSLARKVEKLGITPPKQVSKDQIVNQ	not soluble
MSQWYELQQLDSKFLEQVHQLYDDSFPMEIRQYLAQWLEKQDWEHAANDVSFATIRFHDLLSQLDDQYSRFSLENNFLLQHNIRKSKRNLQDNFQEDPIQMSMIIYSCLKEERKILENAQRFNQAQSGNIQSTVMLDKQKELDSKVRNVKDKVMCIEHEIKSLEDLQDEYDFKCKTLQNREHETNGVAKSDQKQEQLLLKKMYLMLDNKRKEVVHKIIELLNVTELTQNALINDELVEWKRRQQSACIGGPPNACLDQLQNWFTIVAESLQQVRQQLKKLEELEQKYTYEHDPITKNKQVLWDRTFSLFQQLIQSSFVVERQPCMPTHPQRPLVLKTGVQFTVKLRLLVKLQELNYNLKVKVLFDKDVNERNTVKGFRKFNILGTHTKVMNMEESTNGSLAAEFRHLQLKEQKNAGTRTNEGPLIVTEELHSLSFETQLCQPGLVIDLETTSLPVVVISNVSQLPSGWASILWYNMLVAEPRNLSFFLTPPCARWAQLSEVLSWQFSSVTKRGLNVDQLNMLGEKLLGPNASPDGLIPWTRFCKENINDKNFPFWLWIESILELIKKHLLPLWNDGCIMGFISKERERALLKDQQPGTFLLRFSESSREGAITFTWVERSQNGGEPDFHAVEPYTKKELSAVTFPDIIRNYKVMAAENIPENPLKYLYPNIDKDHAFGKYYSR	soluble
MSRAEFIRFLQVLEEDLPFRALFQEADPEEILKLADQHGFIFSDEIKGRFLNRWAGVYFCPFANDVGRLCPKMVPEGFSTLLHYSQTTCTKEDKVERFDFRAGGYYEGVKAVTG	not soluble
MSRGSSAGFDRHITIFSPEGRVYQVEYAFKAINSTNLTAVAVKGADAAVIAVQKRVPDSLIVADTVTSVYQISQSVGCCAIGMIPDAKFQIKRAQGEAASWKYKNGYDMPCELLAKKMADLNQYYTQNAEMRSLGCALLFISYDDEKGPEVYRVDPAGYYRGMKGVSVGVKQLPATSFLEKKIKKKSELTSTEAIELAIEALQTSLGIDVRSKDLEVVVVTKDNSKFTKLTSDQVEHHLNQIANRD	not soluble
MSRGYYRTEEEIVQDKVLHRDPGIIEENYASKPPSRRSSSNTNPDSLVNQKHAQPLPSPLHSPVKSVTGSSKNQSPKMAPVRSNSRGSSASSEEDIGTRSFSISVLKDSGTKVEIMLKAHGLRKKKGFINSLVTVFKKPSQPSRLLSNGKFTEFVLTEHALRFLLEVKTDKKKKKGNGNRLDTFLCEVKRFPSDVNPDSAEFEVLEPASGEAFILLTLIKTGNLSTNWKEFLDTHGTLDVSTI	soluble
